Measured values reported in US20260201030A1, “ANTIBODY, ANTIBODY-DRUG CONJUGATE THEREOF AND USE THEREOF” (EVOPOINT BIOSCIENCES CO., LTD., priority 2021, published 2026).

How the values were obtained:
[1] = biological target: T1, rat Claudin18.2 (Rattus norvegicus, UniProt Q5I0E5); experiment: FACS species affinity on HEK293T-Claudin18.2 (rat) cells; assay type: binding; settings: cell-based FACS
T1 construct: expressed in transfected cells
Description: (§1) The affinity of the anti-human Claudin18.2 humanized monoclonal antibodies for Claudin18.2 of different species was determined by flow cytometry (FACS). The experimental procedures were as follows: HEK293T-Claudin18.2 (cynomolgus monkey) cells, HEK293T-Claudin18.2 (mouse) cells and HEK293T-Claudin18.2 (rat) cells were digested, collected by centrifugation, washed three times with pre-cooled PBS, resuspended in 1% BSA (in PBS), and added to a 96-well pointed bottom plate at 3×10^5 cells/well. Each antibody subjected to gradient dilution was added, and the mixture was incubated at 4° C. for 1 h. The cells were washed three times with pre-cooled PBS, and then 1 μL of a fluorescent secondary antibody (APC: Biolegend-410712) was added to each well. The mixture was incubated at 4° C. for 0.5 h, and the cells were washed three times with pre-cooled PBS, then resuspended, and assayed on a flow cytometer.

[2] = biological target: T2, human Claudin18.2 (Homo sapiens, UniProt P56856); experiment: Cell-based ELISA affinity of humanized antibodies on L929-Claudin18.2 (human) cells; assay type: binding; settings: L929-Claudin18.2 cells
T2 construct: expressed in transfected cells

[3] = test system: HEK293T-Claudin18.2 (human) cells; experiment: CDC activity, guinea pig serum killing experiment; assay type: cell-based; settings: 20% guinea pig serum, 5 h
Description: CDC activity of the anti-human Claudin18.2 humanized monoclonal antibodies was detected by a guinea pig serum killing experiment. The experimental procedures were as follows: HEK293T-Claudin18.2 (human) cells were digested, collected by centrifugation, plated at 50000 cells/well, and incubated overnight. The supernatant was discarded, and 100 μL of each test antibody subjected to gradient dilution with DMEM+20% guinea pig serum (Beijing Bersee, BM361Y) was added to each well. The mixture was incubated at 37° C. for 5 h, and 20 μL of a CCK8 reagent (Suzhou Rhino Bio, QDY-003-D) was added to each well. The mixture was allowed to react for 1-4 h, and readings were taken at 450 nm on a microplate reader.

[4] = biological target: T3, mouse Claudin18.2 (Mus musculus, UniProt P56857); experiment: FACS species affinity on HEK293T-Claudin18.2 (mouse) cells; assay type: binding; settings: cell-based FACS
T3 construct: expressed in transfected cells
T3 sequence (P56857 1-264 isoform P56857-3): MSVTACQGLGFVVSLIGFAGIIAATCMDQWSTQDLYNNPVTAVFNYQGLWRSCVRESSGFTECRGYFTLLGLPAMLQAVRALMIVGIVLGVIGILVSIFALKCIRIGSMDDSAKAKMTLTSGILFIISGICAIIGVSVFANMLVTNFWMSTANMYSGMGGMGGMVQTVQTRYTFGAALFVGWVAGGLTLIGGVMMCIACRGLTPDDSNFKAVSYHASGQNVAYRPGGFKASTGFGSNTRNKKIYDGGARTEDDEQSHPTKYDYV
Description: as §1

[5] = biological target: T2, human Claudin18.2; experiment: Cell-based FACS affinity on HEK293T-Claudin18.2 (human) cells; assay type: binding
Description: (§2) The affinity of the anti-human Claudin18.2 humanized antibodies was detected by flow cytometry. The experimental procedures were as follows: The adherent cultured HEK293T-Claudin18.2 (human), NUGC4-Claudin18.2 (human) and NUGC4 cells were digested, collected by centrifugation, and washed three times with pre-cooled PBS. The cells were resuspended in 1% BSA (in PBS) and added to a 96-well pointed bottom plate at 3×10^5 cells/well, with a volume of 50 μL per well. Each test antibody was diluted with 1% BSA (in PBS) (starting at 100 μg/mL, diluted in a 3-fold gradient, for 10 concentration points). The test antibody subjected to gradient dilution was added to the cells at 50 μL/well, and the mixture was well mixed and incubated at 4° C. for 1 h. The cells were collected by centrifugation, washed three times with pre-cooled PBS, and resuspended in 50 μL of 1% BSA (in PBS). 1 μL of a fluorescent secondary antibody (Biolegend-410712) was added to each well, and the mixture was well mixed and incubated at 4° C. for 0.5 h. The cells were collected by centrifugation, washed three times with pre-cooled PBS, resuspended in 200 μL of PBS, and assayed on a machine.

[6] = biological target: T2, human Claudin18.2; experiment: Cell ELISA affinity before and after conjugation, NUGC4 cells; assay type: binding; settings: FIG. 8B
Description: The cell binding affinity of the antibody before and after conjugation to the toxin was detected according to a method similar to that described in Example 2.2. L929-claudin 18.2 (human) or NUGC4 cells were digested with trypsin, collected by centrifugation, washed three times with pre-cooled PBS, resuspended, added to a 96-well plate at 5×10^4 cells/well, and incubated overnight. The cells were fixed with 4% paraformaldehyde and blocked with 2% BSA (in PBS) at 37° C. for 2 h. Each ADC drug or antibody subjected to gradient dilution was added, and the mixture was incubated at 37° C. for 2 h. […] A TMB substrate was added for color development, and after the reaction was stopped by 2 M HCl, OD450 nm values were read on a microplate reader.

[7] = biological target: T2, human Claudin18.2; experiment: Cell-based ELISA affinity on NUGC4-Claudin18.2 (human) cells; assay type: binding
[8] = biological target: T2, human Claudin18.2; experiment: Cell-based FACS affinity on NUGC4-Claudin18.2 (human) cells; assay type: binding
Description: as §2

[9] = biological target: T2, human Claudin18.2; experiment: Cell-based FACS affinity on NUGC4 cells; assay type: binding
Description: as §2

T1 sequence (Q5I0E5 1-261 isoform Q5I0E5-2): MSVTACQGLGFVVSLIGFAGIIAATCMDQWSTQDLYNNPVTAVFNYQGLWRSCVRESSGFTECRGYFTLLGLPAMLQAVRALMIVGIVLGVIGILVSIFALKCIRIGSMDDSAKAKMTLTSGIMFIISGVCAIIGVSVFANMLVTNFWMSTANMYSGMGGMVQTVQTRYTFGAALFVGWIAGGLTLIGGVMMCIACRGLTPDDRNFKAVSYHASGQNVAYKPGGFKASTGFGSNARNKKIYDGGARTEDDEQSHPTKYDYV

| Molecule | HEK293T-Claudin18.2 (rat) EC50 [1] [µg/mL] | Affinity detected by cell-based ELISA (EC50, ng/mL) L929-Claudin18.2 [2] | CDC activity EC50 [3] [µg/mL] | HEK293T-Claudin18.2 (mouse) EC50 [4] [µg/mL] | HEK293T-Claudin18.2 EC50 [5] [µg/mL] | HEK293T-Claudin18.2 Maximum signal value [5] | change in affinity for the cells before and after conjugation [6] | NUGC4-Claudin18.2 EC50 [7] [µg/mL] | NUGC4-Claudin18.2 Maximum signal value ([7]; OD450) | NUCG4- Claudin18.2 EC50 [8] [µg/mL] | NUCG4- Claudin18.2 Maximum signal value [8] | binding to NUGC4 (in words) [9] |
| --- | --- | --- | --- | --- | --- | --- | --- | --- | --- | --- | --- | --- |
| 25C7A5-HZ1: humanized anti-Claudin18.2 antibody, VH SEQ ID NO: 1, VL SEQ ID NO: 2, human IgG1/Kappa constant regions (antibody, V domains shown, human IgG1/kappa constant regions) VH: QVQLVQSGAEVKKPGSSVKVSCKASGYTFTNYWLHWVRQAPGQGLEWMGMMHPISGSSNYAQKFQGRATLTVDKSTSTAYMELSSLRSEDTAVYYCARGLLSAMDYWGQGTLVTVSS VL: EIVLTQSPATLSLSPGERATLSCKASENVKTYVSWYQQKPGQSPRLLIYEASNRYTGVPARFSGSGSATDFTLTISSLEPEDFAVYFCGQTYSFPPTFGQGTKVEIK | 1.672 | 13.41 ng/mL | 3.137 | 0.9407 | 0.292 | 113572 | no significant changes in the affinity | 0.1076 | 1.284 | 3.192 | 871132 | significant binding |
| 25C7A5-HZ2: humanized anti-Claudin18.2 antibody, VH SEQ ID NO: 3, VL SEQ ID NO: 2, human IgG1/Kappa constant regions (antibody, V domains shown, human IgG1/kappa constant regions) VH: QVQLVESGAEVKKPGSSVKVSCKASGYTFTNYWLHWVRQAPGQGLEWMGMMHPISGSSNYAQKFQGRATLTVDKSTSTAYMELSSLRSEDTAVYYCARGLLSAMDYWGQGTLVTVSS VL: EIVLTQSPATLSLSPGERATLSCKASENVKTYVSWYQQKPGQSPRLLIYEASNRYTGVPARFSGSGSATDFTLTISSLEPEDFAVYFCGQTYSFPPTFGQGTKVEIK | – | 14.80 ± 3.1(N = 2) ng/mL | 3.283 | – | 0.2928 | 119070 | no significant changes in the affinity | – | – | – | – | – |
